Assay [1] has as its target T1, recombinant human full-length TDP-43 (TAR DNA-binding protein 43), soluble (human, UniProt Q13148 1-414).
T1 construct: Used on Luminex beads, coated on ELISA plates, and immobilized or injected in SPR; also called FL TDP-43; TDP-43 protein
The assay can be described thus: SPR 8K, immobilized soluble TDP-43; IgG1. How it is done:
The instrument was primed with running buffer PBS-P+ and flow cells (Fc) 1 and 2 of channels 1-8 were activated with a fresh solution of EDC/NHS (Amine Coupling Kit, 1:1 ratio of both reagents, GE Healthcare Life Sciences, BR-1006-33) at 10 µL/min for 420 sec. Soluble TDP-43 (Selvita) was diluted in sodium acetate pH 4.5 to a final concentration of 5 µg/mL and injected for 900 sec with a flow rate of 5 µL/min on Fc 2. All flow cells were quenched with 1 M ethanol amine (GE Healthcare Life Sciences, BR-1006-33), at 10 µL/min for 420 sec. Immobilization levels after ethanolamine quenching were 680 RU on all eight channels. Prior to analysis, two Startup cycles were run. Increasing mAbs concentrations were injected in single-cycle kinetics ranging from 1.2 to 100 nM, prepared from a 3-fold serial dilution in running buffer, with a contact time of 300 sec and a dissociation time of 900 sec at a flow rate of 30 µL/min. Each cycle was followed by one regeneration using 10 mM Glycine-HCl pH 1.7 with a contact time of 30 sec at 30 µL/min, followed by a stabilization period of 300 sec. Results obtained from single-cycle kinetics were double-referenced using the blank Fc 1 and buffer cycles and evaluated using Biacore 8 K evaluation software using the 1:1 kinetic fit model with RI and global Rmax. The following kinetic parameters were obtained: association rate constant (ka), dissociation rate constant (kd), affinity constant (KD) and saturation response (Rmax).

The target of assay [2] is T2, TP-51 peptide (aa 352-414 of SEQ ID NO:1) (human).
T2 construct: Synthetic peptide (Pepscan)
T2 peptide: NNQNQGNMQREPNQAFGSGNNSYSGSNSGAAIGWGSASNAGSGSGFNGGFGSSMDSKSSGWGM
Kind of assay: SPR 8K, mAb captured, TP-51 injected; IgG1. The method, then: The instrument was primed with running buffer PBS-P+. Fc 1-2 of channels 1-8 (8 K) were activated with a fresh solution of EDC/NHS(Amine Coupling Kit, 1:1 ratio of both reagents, GE Healthcare Life Sciences, BR-1006-33) at 10 µL/min for 420 sec and goat anti-human antibody (GE Healthcare Life Sciences, 29234600) was immobilized at 25 µg/mL in 10 mM sodium acetate pH 5 for 420 sec. Next, all Fc were quenched with 1 M ethanol amine(GE Healthcare Life Sciences, BR-1006-33), for 420 sec. Any non-covalently bound antibodies were removed by two regenerations with 10 mM Glycine-HCl pH 1.7 for 30 sec. Immobilization levels were evaluated following ethanolamine quenching (10000 RU for all channels).
Each cycle started with non-covalent capture of humanized variants which were diluted in running buffer to a final concentration of 2 µg/mL and injected for 60 sec with a flow rate of 10 µL/min. TDP-43 mAbs were captured on channels 1-8, leaving Fc 1 as a blank Fc. Capture levels were evaluated following a 120 sec stabilization period after each mAb injection and ranged from 300-500 RU.
Injections of TP-51 peptide (Pepscan) were performed in single-cycle kinetics with increasing concentrations ranging from 1.2-100 nM prepared from serial 3-fold dilutions. Injections were performed with contact times of 300 sec/injection at a flow rate of 25 µL/min. A dissociation phase of 3600 sec followed the final injection. Sensor surface was regenerated by one injection of 10 mM Glycine-HCl pH 1.7 at a flow rate of 10 µL/min for 120 sec, followed by a stabilization period of 300 sec. Results obtained from single-cycle kinetics were double-referenced using the blank Fc 1 and buffer cycles and evaluated by Biacore 8 K evaluation software with 1:1 kinetic fit model with RI and global Rmax. The following kinetic parameters were obtained: association rate constant (ka), dissociation rate constant (kd), affinity constant (KD) and saturation response (Rmax).

In assay [3] the target is T1, recombinant human full-length TDP-43 …. Kind of assay: indirect ELISA, coated FL TDP-43. The method, then:
Antibody binding to human FL TDP-43 was determined using an indirect ELISA. ELISA plate coating with 1 µg/ml human FL TDP-43 was performed overnight in carbonate buffer at 4° C. Plates were washed with 0.05% Tween-20/PBS and then blocked with 1% bovine serum albumin (BSA) in 0.05% Tween-20/PBS for 1 hour at 37° C. Antibodies purified from hybridoma supernatants were then added in a 3-fold serial dilution starting at 1 µg/ml, and incubated for 2 hours at 37° C. after which the plates were washed. An AP-conjugated anti-mouse IgG secondary antibody (Jackson Immunoresearch Laboratories, United Kingdom) was added at 1/1000 dilution in 0.05% Tween-20/PBS for 1 hour at 37° C. After the final wash, plates were incubated with pNPP (Sigma-Aldrich, Switzerland) phosphatase substrate solution, and read at 405 nm using an ELISA plate reader (Tecan, Switzerland).
In general terms: In an ELISA, binding on a coated surface is turned into a signal by an enzyme label.

The target is the same in assay [4]. The assay can be described thus: SPR, immobilized soluble TDP-43. How it is done: (§1) Binding avidity to soluble or aggregated FL TDP-43 was evaluated by determing the dissociation constants (KD) using surface plasmon resonance (SPR; Biacore T200, GE Healthcare Life Sciences). Recombinant human soluble or aggregated FL TDP-43 were immobilized on a CM5 Series S sensor chip (GE Healthcare Life Sciences) by amine coupling. Soluble TDP-43 was immobilized at a concentration of 5 µg/ml in 10 mM sodium acetate (pH 4.5) with a flow rate of 5 µl/min for 420 seconds resulting in an immobilization level of 150 RU. Aggregated TDP-43 was immobilized at a concentration of 50 µg/ml in 10 mM sodium acetate (pH 4.5) with a flow rate of 5 µl/min for 840 seconds resulting in an immobilization level of 110 RU. Biotinylated TP-73 peptide (aa 181-190 of SEQ ID NO:1) was immobilized on a Series S Sensor Chip SA (GE Healthcare Life Sciences) at a concentration of 5 µg/ml in PBS-P⁺ with a flow rate of 5 µl/min for 30 seconds resulting in an immobilization level of 400 RU. […] The antibodies were injected at a flow rate of 50 µl/min for 90 seconds contact time and 700 seconds dissociation phase followed by three regenerations with 10 mM glycine-HCl pH 1.7. For the optimized SPR protocol the antibodies were diluted 3-fold starting from 300 nM and dilute down to 1.2 nM and injected for 300 seconds at 30 µl/min followed by 600 seconds dissociation. The surface was regenerated by one injection with 10 mM glycine-HCl pH 1.7. Results obtained from binding kinetics were double-referenced using a blank flow cell and a buffer cycle and were evaluated with a global 1:1 fitting model with RI. Avidities for 11 antibodies and two Fab fragments are depicted in Table 8. […] In addition, some antibodies show preferential binding to aggregated TDP-43 as compared with soluble TDP-43.
(SPR reads the build-up and loss of mass on a sensor chip optically.)

The target is the same in assay [5]. The assay can be described thus: Luminex, FL TDP-43 on beads. The method, then: Mice were euthanized and fusion with myeloma cells was performed using splenocytes from four individual mice. Screening for antibodies from the successfully fused hybridoma cell lines were performed as follows. Diluted (1:32) cell culture supernatants were analyzed using Luminex bead-based multiplex assay (Luminex, The Netherlands). Luminex beads were conjugated to FL TDP-43 and with capturing IgGs with anti-mouse IgG-Fc antibodies specific for the IgG1, IgG2a, IgG2b, IgG2c, and IgG3 subclasses (Jackson Immunoresearch, USA). Binding to beads conjugated to FL TDP-43 identified 386 hits derived from mice immunized with the FL TDP-43 liposomal vaccine.
Luminex assays with serial dilution of antibodies were performed as described before to determine half maximal effective concentration (EC50) of binding of antibodies to FL TDP-43. In summary, all tested antibodies bind to full length TDP-43 with high affinity.

Assay [6] deals with T3, recombinant human aggregated full-length TDP-43 (human, UniProt Q13148 1-414).
T3 construct: also called aggregated TDP-43; aggregated FL TDP-43
The assay can be described thus: SPR, immobilized aggregated TDP-43. The method, then: as §1

Data on seven molecules can be found in patent US20230322908A1 (AC IMMUNE, published 2023).

A word on the Kd: it is the constant that tells how readily two partners part at equilibrium. Broadly, the koff is the first-order rate constant of dissociation. In general, kon refers to the rate constant with which the complex forms. By EC50 is commonly meant the concentration giving half of the maximal effect.

T1 sequence (Q13148 whole entry): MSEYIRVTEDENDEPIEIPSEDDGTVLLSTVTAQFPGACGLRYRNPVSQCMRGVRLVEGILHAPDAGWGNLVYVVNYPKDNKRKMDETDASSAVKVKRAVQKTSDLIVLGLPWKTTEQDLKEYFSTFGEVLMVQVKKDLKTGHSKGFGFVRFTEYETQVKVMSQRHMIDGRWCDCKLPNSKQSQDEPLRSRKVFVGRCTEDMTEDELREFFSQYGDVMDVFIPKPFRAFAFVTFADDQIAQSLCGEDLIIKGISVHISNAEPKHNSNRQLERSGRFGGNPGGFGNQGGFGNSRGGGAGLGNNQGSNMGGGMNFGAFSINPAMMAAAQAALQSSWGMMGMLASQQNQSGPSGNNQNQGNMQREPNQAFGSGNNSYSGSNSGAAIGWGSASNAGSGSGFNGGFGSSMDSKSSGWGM

B1: hACI-7069-633B12-Ab1_H16L14 (IgG1) (antibody, V domains shown)
VH: EVQLVQSGAEVKKPGASVKVSCKASGFTFTEYSMHWVRQAPGQRLEWMGGINPGNAGTSYNQKFKGRVTITVDTSASTAYMELSSLRSEDTAVYYCARESWGQGTTVTVSS
VL: DVVMTQSPLSLPVTLGQPASISCKSSQSLLHSDAKTYLNWLQQRPGQSPRRLIYLVSKLDSGVPDRFSGSGSGTDFTLKISRVEAEDLGVYYCFQGTHFPHTFGQGTKLEIK
notes: Human IgG1 / kappa
Consider B1, for which, in assay [1], the dissociation constant Kd was 0.652 nM, the koff came to 2.2e-05 s⁻¹ and the on-rate (kon) was found to be 47000 M⁻¹ s⁻¹. In assay [2], this molecule yielded a Kd of 6.4 nM, a koff of 0.0011 s⁻¹ and a kon of 170000 M⁻¹ s⁻¹.

B2: hACI-7069-633B12-Ab1_H15L18 (IgG1) (antibody, V domains shown)
VH: QVQLVQSGAEVKKPGASVKVSCKASGFTFTEYSMHWVRQAPGQRLEWMGGINPGNAGTSYNQKFKGRVTITVDTSASTAYMELSSLRSEDTAVYYCARESWGQGTTVTVSS
VL: DVVMTQSPLSLPVTLGQPASISCKSSQSLLHSDAKTYLNWLQQRPGQSPRRLIYLVSKLDSRVPDRFSGSGSGTDFTLKISRVEAEDLGVYYCFQGTHFPHTFGQGTKLEIK
notes: Human IgG1 / kappa
For the molecule B2, in assay [1], the Kd came out at 0.113 nM, the koff came to 8.3e-06 s⁻¹ and the kon stood at 74800 M⁻¹ s⁻¹.

B3: hACI-7069-633B12-Ab1_H23L20 (IgG1) (antibody, V domains shown)
VH: QVQLVQSGAEVKKPGASVKVSCKTSGFTFTEYSMHWVRQAPGQRLEWIGGINPGNGGTSYNQKFKGRVTITVDTSASTAYMELSSLRSEDTAVYYCARESWGQGTTVTVSS
VL: DVVMTQSPLSLPVTLGQPASISCKSSQSLLHSDGKTYLNWLQQRPGQSPRRLIYLVSKLDSRVPDRFSGSGSGTDFTLKISRVEAEDLGVYYCWQGTHFPHTFGQGTKLEIK
notes: Human IgG1 / kappa
Consider B3, for which, in assay [1], the Kd is 0.145 nM, the koff was 6.4e-06 s⁻¹ and the on-rate (kon) is 44000 M⁻¹ s⁻¹. Also, in assay [2], binding was put at a Kd of 6.2 nM, the koff was 0.00021 s⁻¹ and the kon stood at 35000 M⁻¹ s⁻¹.

B4: hACI-7069-633B12-Ab1_H19L18 (IgG1 isotype) (antibody, V domains shown)
VH: QVQLVQSGAEVKKPGASVKVSCKTSGFTFTEYSMHWVRQAPGQRLEWIGGINPGNAGTSYNQKFKGRVTITVDTSASTAYMELSSLRSEDTAVYYCARESWGQGTTVTVSS
VL: DVVMTQSPLSLPVTLGQPASISCKSSQSLLHSDAKTYLNWLQQRPGQSPRRLIYLVSKLDSRVPDRFSGSGSGTDFTLKISRVEAEDLGVYYCFQGTHFPHTFGQGTKLEIK
notes: Human IgG1 / kappa; also called hACI-7069-633B12-Ab1_H19L18 (hIgG1 isotype)
For B4, in assay [1], the Kd turned out to be 0.205 nM, the koff is 9.6e-06 s⁻¹ and the kon came to 48000 M⁻¹ s⁻¹. In assay [2], this molecule had a Kd of 2.8 nM, a koff of 0.00015 s⁻¹ and a kon of 53000 M⁻¹ s⁻¹.

B5: hACI-7069-633B12-Ab1_H20L19 (IgG1) (antibody, V domains shown)
VH: EVQLVQSGAEVKKPGASVKVSCKTSGFTFTEYSMHWVRQAPGQRLEWIGGINPGNAGTSYNQKFKGRVTITVDTSASTAYMELSSLRSEDTAVYYCARESWGQGTTVTVSS
VL: DVVMTQSPLSLPVTLGQPASISCKSSQSLLHSDAKTYLNWLQQRPGQSPKRLIYLVSKLDSRVPDRFSGSGSGTDFTLKISRVEAEDLGVYYCFQGTHFPHTFGQGTKLEIK
notes: Human IgG1 / kappa
As to B5, in assay [1], the Kd amounted to 0.235 nM, the koff stood at 1.8e-05 s⁻¹ and the kon worked out at 47000 M⁻¹ s⁻¹. For the same molecule, in assay [2], the equilibrium dissociation constant (Kd) worked out at 1.4 nM, the koff is 0.00023 s⁻¹ and the kon was 170000 M⁻¹ s⁻¹.

B6: ACI-7069-631B2-Ab1 (antibody, mouse IgG1, V domains shown)
VH: EVQLQQSGPELVKPGASVKISCKTSGYTFTEYSIHWVKQSHGESLEWIGGINPDNGGTRYNQKFKGKATLTVDKSSSTAYMDLRSLTSEDSAVYYCARESWGQGTTLTVSS
VL: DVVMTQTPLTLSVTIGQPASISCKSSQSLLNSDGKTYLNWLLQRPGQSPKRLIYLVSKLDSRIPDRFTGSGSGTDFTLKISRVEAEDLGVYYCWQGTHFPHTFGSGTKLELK
notes: Mouse IgG1, kappa, from hybridoma; also called 631B2A2
As for B6, the EC50 in assay [3] came out at 0.053 µg/mL. Further, in assay [4], the Kd is 486 nM, the koff was 0.000774 s⁻¹ and the kon was 1590 M⁻¹ s⁻¹. Also, the EC50 in assay [5] was below 0.01 nM. Further, in assay [6], the Kd was 0.82 nM, the off-rate (koff) was 7.1e-05 s⁻¹ and the kon stood at 86100 M⁻¹ s⁻¹.

B7: cACI-7069-633B12-Ab1 (human IgG1 chimeric) (antibody, V domains shown)
VH: EVQLQQSGPELVKPGASVKISCKTSGFTFTEYSMHWVKQSHGKSLEWIGGINPNNGGTSYNQKFKGKATLTVDKSSSTAYMELRSLTSEDSAVYYCARESWGQGTTLTVSS
VL: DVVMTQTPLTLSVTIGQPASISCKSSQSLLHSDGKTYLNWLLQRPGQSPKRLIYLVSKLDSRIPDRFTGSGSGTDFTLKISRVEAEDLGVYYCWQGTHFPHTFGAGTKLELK
notes: also called chimeric antibody
Turning to B7, in assay [1], the Kd came out at 0.15 nM, the koff is 8.4e-06 s⁻¹ and the kon amounted to 58000 M⁻¹ s⁻¹. In assay [2], this molecule registered a Kd of 2.4 nM, a koff of 9.3e-05 s⁻¹ and a kon of 39000 M⁻¹ s⁻¹.
